This note sets out measurements from article PMC5499591 (Nucleic Acids Research, 2017).

For series [1], the target named is T1, GST-Mcm10 (wild type) (Saccharomyces cerevisiae, UniProt P32354 1-571).
T1 sequence: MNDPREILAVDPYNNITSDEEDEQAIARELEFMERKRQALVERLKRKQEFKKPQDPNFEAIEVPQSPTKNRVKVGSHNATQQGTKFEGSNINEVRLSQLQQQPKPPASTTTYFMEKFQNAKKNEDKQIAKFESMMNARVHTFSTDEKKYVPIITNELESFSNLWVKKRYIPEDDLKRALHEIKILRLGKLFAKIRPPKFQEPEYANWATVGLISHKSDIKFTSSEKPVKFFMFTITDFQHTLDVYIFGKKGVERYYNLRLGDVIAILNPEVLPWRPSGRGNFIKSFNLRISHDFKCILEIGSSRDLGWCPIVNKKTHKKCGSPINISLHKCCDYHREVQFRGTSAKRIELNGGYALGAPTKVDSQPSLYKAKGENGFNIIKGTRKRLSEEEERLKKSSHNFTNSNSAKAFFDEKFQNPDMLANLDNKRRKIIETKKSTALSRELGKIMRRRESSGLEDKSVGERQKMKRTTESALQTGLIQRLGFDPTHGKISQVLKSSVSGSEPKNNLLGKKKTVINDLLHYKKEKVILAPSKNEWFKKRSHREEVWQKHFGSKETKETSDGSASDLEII
The series is described as follows: GST pull-down.

The target of series [2] is T2, GST-Mcm10-4A (Saccharomyces cerevisiae, UniProt P32354 1-571, I26A;L30A;R37A;L40A).
T2 sequence: T1 sequence with I26A, L30A, R37A, L40A
The series is described as follows: GST pull-down.

The target of series [3] is T3, wild-type GST-Mcm10 (Saccharomyces cerevisiae, UniProt P32354 1-571).
T3 sequence: T1 sequence
The series is described as follows: pull-down.

In series [4] the target is T4, GST-p180 (budding yeast (S. cerevisiae), UniProt P13382 1-1468).
T4 sequence: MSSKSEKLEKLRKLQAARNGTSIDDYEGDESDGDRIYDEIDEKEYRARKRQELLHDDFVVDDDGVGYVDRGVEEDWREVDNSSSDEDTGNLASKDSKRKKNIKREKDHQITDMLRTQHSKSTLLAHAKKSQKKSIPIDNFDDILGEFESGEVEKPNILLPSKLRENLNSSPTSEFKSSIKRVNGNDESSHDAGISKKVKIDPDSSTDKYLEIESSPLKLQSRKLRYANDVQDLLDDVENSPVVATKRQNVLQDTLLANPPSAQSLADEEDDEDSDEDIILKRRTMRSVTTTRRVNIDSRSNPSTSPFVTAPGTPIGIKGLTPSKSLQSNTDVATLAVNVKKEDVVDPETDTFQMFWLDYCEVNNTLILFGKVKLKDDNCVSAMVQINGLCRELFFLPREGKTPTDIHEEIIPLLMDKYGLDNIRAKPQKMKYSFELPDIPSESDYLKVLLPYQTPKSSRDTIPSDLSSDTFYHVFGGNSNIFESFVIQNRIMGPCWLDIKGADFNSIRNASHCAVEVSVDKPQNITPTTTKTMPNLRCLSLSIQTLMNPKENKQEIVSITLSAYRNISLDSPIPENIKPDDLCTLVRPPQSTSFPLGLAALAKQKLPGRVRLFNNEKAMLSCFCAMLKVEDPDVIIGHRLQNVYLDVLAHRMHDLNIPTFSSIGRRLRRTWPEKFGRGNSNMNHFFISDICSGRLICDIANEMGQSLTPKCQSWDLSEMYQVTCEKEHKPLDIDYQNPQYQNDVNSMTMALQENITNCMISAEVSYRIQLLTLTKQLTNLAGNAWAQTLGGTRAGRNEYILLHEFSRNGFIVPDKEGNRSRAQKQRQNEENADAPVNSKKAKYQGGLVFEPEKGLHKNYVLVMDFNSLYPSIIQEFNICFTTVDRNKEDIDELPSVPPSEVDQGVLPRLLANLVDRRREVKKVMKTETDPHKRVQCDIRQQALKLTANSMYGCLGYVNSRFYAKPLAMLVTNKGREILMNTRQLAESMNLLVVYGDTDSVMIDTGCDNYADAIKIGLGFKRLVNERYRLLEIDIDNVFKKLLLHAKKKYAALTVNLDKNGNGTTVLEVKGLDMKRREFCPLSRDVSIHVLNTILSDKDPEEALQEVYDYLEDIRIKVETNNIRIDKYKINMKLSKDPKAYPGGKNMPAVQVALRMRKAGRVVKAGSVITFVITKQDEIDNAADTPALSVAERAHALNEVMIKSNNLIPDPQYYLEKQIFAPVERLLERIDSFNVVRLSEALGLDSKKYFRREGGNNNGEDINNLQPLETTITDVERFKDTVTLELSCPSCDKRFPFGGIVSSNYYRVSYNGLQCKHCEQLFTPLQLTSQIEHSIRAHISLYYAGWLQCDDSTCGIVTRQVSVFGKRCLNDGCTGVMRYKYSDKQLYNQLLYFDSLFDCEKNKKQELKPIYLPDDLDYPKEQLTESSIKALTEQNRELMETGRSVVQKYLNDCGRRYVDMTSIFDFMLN
Briefly: pull-down.

Series [5] addresses radiolabeled PKA-Mcm2–7 complex (budding yeast (S. cerevisiae), UniProt P29469;P24279;P30665;P29496;P53091;P38132). Briefly: pull-down.
The target of series [6] is T5, GST-Cdc45 (budding yeast (S. cerevisiae), UniProt Q08032 1-650).
T5 sequence: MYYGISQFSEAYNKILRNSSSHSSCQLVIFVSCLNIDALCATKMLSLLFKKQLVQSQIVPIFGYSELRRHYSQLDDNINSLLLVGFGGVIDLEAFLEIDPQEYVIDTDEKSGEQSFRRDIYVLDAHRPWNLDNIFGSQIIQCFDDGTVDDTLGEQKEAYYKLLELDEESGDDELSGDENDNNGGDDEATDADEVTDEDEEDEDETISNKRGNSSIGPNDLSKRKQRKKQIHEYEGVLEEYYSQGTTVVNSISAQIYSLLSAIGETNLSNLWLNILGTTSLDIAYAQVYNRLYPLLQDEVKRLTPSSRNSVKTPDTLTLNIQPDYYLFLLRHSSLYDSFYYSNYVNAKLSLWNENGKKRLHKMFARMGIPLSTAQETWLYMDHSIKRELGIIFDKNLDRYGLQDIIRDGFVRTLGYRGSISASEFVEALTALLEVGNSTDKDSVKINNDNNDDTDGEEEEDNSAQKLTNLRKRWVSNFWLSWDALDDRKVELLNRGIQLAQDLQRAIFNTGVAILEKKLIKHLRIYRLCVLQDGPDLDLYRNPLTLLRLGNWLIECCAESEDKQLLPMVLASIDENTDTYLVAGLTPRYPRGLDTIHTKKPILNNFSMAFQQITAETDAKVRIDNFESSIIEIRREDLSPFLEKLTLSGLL
Briefly: pull-down.

In series [7] the target is T6, GST-Dbf4 (budding yeast (S. cerevisiae), UniProt P32325 1-704).
T6 sequence: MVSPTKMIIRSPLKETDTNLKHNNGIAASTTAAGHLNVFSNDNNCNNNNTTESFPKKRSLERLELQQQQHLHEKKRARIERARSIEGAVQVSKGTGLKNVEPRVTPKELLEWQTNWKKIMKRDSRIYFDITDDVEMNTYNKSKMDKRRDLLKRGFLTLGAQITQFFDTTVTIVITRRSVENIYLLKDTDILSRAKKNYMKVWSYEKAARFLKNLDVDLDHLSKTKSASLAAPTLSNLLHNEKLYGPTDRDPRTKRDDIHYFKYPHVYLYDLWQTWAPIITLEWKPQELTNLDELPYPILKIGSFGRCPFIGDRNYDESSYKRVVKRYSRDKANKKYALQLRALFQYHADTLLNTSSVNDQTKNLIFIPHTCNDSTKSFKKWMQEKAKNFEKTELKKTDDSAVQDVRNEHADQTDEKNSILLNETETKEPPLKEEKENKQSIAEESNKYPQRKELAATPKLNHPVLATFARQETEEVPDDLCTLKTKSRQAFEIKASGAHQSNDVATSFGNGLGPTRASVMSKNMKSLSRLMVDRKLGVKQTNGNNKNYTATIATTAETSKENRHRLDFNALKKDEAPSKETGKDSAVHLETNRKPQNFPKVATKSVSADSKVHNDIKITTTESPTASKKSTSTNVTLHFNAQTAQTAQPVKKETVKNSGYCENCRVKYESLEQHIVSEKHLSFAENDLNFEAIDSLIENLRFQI
The series is described as follows: pull-down.

Substitutions are numbered along the chain they refer to. Names and notes keep the numbering of the source.

B1: 80mer ssDNA (80dT) (ssDNA)
DNA: TTTTTTTTTTTTTTTTTTTTTTTTTTTTTTTTTTTTTTTTTTTTTTTTTTTTTTTTTTTTTTTTTTTTTTTTTTTTTTTT
For B1, the binding result in series [1] is “binds”.

B2: blunt dsDNA (called 30mer) (dsDNA)
DNA 1: ATGTCCTAGCAAGCCAGAATTCGGCAGCGTC
DNA 2: GACGCTGCCGAATTCTGGCTTGCTAGGACAT
Consider B2, for which the binding result in series [1] is “binds”.

B3: 25mer ssDNA (ssDNA)
DNA: ATGTCCTAGCAAGCCAGAATTCGGC
For the molecule B3, the binding result in series [1] and in series [2] was “binds” throughout.

B4: radiolabeled wild-type PKA-Mcm10 (natural protein)
chain: T1 sequence
modifications: 32P label put on the PKA tag by protein kinase A with [gamma-32P]-ATP
In the case of B4, the binding result in series [3] and in series [4] was “binds” in each case.

B5: GST-Mcm10-4A (Mcm10-I26A-L30A-R37A-L40A) (natural protein)
chain: T1 sequence with I26A, L30A, R37A, L40A
For B5, the binding result in series [5] is recorded as “binds”.

B6: radiolabeled PKA-Mcm10-4A (Mcm10-I26A-L30A-R37A-L40A) (natural protein)
chain: T1 sequence with I26A, L30A, R37A, L40A
modifications: 32P label put on the PKA tag by protein kinase A with [gamma-32P]-ATP
Consider B6, for which the binding result in series [4], in series [6] and in series [7] was “binds” in each case.
